What was measured:
[1] = target: embryonic chicken AT4 receptor (chicken); experiment: competition for [125I]Ang IV binding, E13 chicken chorioallantoic membranes
[2] = target: embryonic chicken Ang II receptor (chicken); experiment: competition for 125I[Sar1Ile8]Ang II binding, E13 chicken chorioallantoic membranes
[3] = target: angiotensin AT4 receptor of Macaca fascicularis brain (Macaca fascicularis); experiment: competition for [125I]Ang IV binding, monkey prefrontal cortical sections
[4] = target: AT4 receptor of sheep central nervous system (sheep); experiment: competition for [125I]Ang IV binding, sheep cerebellar cortical membranes
[5] = target: AT4 receptor of sheep central nervous system (sheep); experiment: competition for 125I-LVV-haemorphin-7 binding, sheep cerebellar cortical membranes

Sequence of embryonic chicken Ang II receptor (chicken) (P79785 whole entry): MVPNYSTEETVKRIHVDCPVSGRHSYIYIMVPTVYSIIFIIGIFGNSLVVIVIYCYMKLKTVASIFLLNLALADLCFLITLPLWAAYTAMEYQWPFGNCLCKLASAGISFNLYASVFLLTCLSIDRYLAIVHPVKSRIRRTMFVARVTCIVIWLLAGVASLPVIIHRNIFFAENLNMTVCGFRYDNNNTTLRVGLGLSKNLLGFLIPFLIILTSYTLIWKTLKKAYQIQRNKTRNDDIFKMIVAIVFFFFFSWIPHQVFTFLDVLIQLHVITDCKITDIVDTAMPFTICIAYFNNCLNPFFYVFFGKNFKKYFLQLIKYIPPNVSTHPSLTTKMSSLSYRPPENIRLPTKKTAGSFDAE

Substance	concentration effective at competing for 50% of the sites [1] [µM]	IC50 [2] [nM]	IC50 [3] [nM]	IC50 [4] [nM]	IC50 [5] [nM]
CGP 42112 (peptide)	0.5	180			
angiotensin II (from UniProt P01019 25-32) (peptide)		100	730	2000	1600
angiotensin III (from UniProt P01019 26-32) (peptide)			80	6.9	77

Source: patent US20020147129A1
